Data taken from paper doi:10.1101/2025.08.11.669711 (2025).
Numbering of substitutions follows the chain as printed. Each block holds one binder with its values, some of them ahead of it.

Legend:
UCH37 = biological target: T1, UCH37; experiment: SPR
T1 chain: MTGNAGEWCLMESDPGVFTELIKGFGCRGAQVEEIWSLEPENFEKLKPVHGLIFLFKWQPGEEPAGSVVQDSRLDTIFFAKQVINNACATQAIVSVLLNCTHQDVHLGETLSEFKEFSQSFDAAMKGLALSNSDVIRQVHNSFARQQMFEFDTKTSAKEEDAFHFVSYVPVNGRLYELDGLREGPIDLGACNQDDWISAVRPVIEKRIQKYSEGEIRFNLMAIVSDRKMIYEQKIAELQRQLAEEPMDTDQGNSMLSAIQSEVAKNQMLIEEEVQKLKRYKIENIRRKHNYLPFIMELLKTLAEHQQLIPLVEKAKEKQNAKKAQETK

UCH37•RPN13^DEUBAD = biological target: T2, UCH37•RPN13^DEUBAD (UniProt Q16186 253-407); experiment: MST
T2 chain 1: T1 chain
T2 chain 2: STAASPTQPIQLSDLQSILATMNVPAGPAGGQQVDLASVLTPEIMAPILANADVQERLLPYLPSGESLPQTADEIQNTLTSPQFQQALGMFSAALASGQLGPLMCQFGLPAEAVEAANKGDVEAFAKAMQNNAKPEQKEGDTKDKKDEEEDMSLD

koff (UCH37): 3.9e-05 s⁻¹
B1: Nb-ncS1 (His-tagged) (VHH)
VHH: RVQLQESGGGLVQAGGSLRLSCAASGYIFRSYRMGWYRQAPGKERELVAAIGLGGNTYYADSVKGRFTISRDNAKNTVYQQMNSLKPEDTAVYYCAALYGKPPAFSPFPYWGQGTQVTVSS

koff (UCH37): 0.00013 s⁻¹
B2: Nb-v1 (recombinant) (VHH)
VHH: B1 VHH with R1Q, Q80L, Y99H, P109A

Kd (UCH37•RPN13^DEUBAD): 199 nM
B3: Nb-cS1 (His-tagged) (VHH)
VHH: QVQLQESGGGLVQAGGSLRLSCAASGYISRPRTMGWYRQAPGKEREFVAIISNGAITNYADSVKGRFTISRDNAKNTVYLQMNSLKPEDTAVYYCAAGRNIWHAYWGQGTQVTVSS
